Our source for the peptide exchange yield values is patent publication US20260028387A1 (published 2026).

In the assay the target is T1, HLA-A*02:01 (peptide-receptive MHC class I molecule of the UV-ligand exchange assay) (human).
T1 construct: MHC monomer first loaded with a UV-sensitive peptide (not identified) that is cleaved by UV light and exchanged for the test peptide; captured on streptavidin plates
Briefly: UV-ligand exchange, anti-b2m ELISA; peptide exchange yield grade (>=10% = +; >=20% = ++; >=50 = +++; >=75% = ++++). An excerpt:
Candidate peptides for T cell based therapies according to the present invention were further tested for their MHC binding capacity (affinity). The individual peptide-MHC complexes were produced by UV-ligand exchange, where a UV-sensitive peptide is cleaved upon UV-irradiation, and exchanged with the peptide of interest as analyzed. Only peptide candidates that can effectively bind and stabilize the peptide-receptive MHC molecules prevent dissociation of the MHC complexes. To determine the yield of the exchange reaction, an ELISA was performed based on the detection of the light chain (β2m) of stabilized MHC complexes. The assay was performed as generally described in Rodenko et al. (Rodenko et al., 2006).
96 well MAXISorp plates (NUNC) were coated aver night with 2 ug/ml streptavidin in PBS at room temperature, washed 4× and blocked for 1 h at 37° C. in 2% BSA containing blocking buffer. Refolded HLA-A*02:01/MLA-001 monomers served as standards, covering the range of 15-500 ng/ml. Peptide-MHC monomers of the UV-exchange reaction were diluted 100 fold in blocking buffer. Samples were incubated for 1 h at 37° C., washed four times, incubated with 2 ug/ml HRP conjugated anti-02m for 1 h at 37° C., washed again and detected with TMB solution that is stopped with […]. Absorption was measured at 450 nm. Candidate peptides that show a high exchange yield (preferably higher than 50%, most preferred higher than 75%) are generally preferred for a generation and production of antibodies or fragments thereof, and/or T cell receptors or fragments thereof, as they show sufficient avidity to the MHC molecules and prevent dissociation of the MHC complexes.
On the technique in general: An ELISA detects its analyte on a solid surface through an enzyme-linked reagent.

The molecule VAIGGVDGNVRL (synthetic peptide; source gene WDR1) [VAIGGVDGNVRL (SEQ ID NO: 52)] came in with a peptide exchange yield of 20 to 50%.
GLESEELEPEEL (synthetic peptide; source gene PABPN1) [GLESEELEPEEL (SEQ ID NO: 41)] had a peptide exchange yield of 20 to 50%.
With KVANIIAEV (synthetic peptide; source gene RAP1GDS1) [KVANIIAEV (SEQ ID NO: 78)], the peptide exchange yield lay in the range of 20 to 50%.
For SIYEYYHAL (synthetic peptide; source gene HIF1A) [SIYEYYHAL (SEQ ID NO: 90)] the value was 50 to 75%; for ALVEVTEHV (synthetic peptide; source gene TMEM132A) [ALVEVTEHV (SEQ ID NO: 56)], 20 to 50%; for KLFGHLTSA (synthetic peptide; source gene PHTF2) [KLFGHLTSA (SEQ ID NO: 51)], 20 to 50%.
IAAIRGFLV (synthetic peptide; source gene ABHD11) [IAAIRGFLV (SEQ ID NO: 38)] displayed a peptide exchange yield of 50 to 75%.
Under FLLRFSQDNA (synthetic peptide; source gene LAP3) [FLLRFSQDNA (SEQ ID NO: 36)] stands 20 to 50%.

B1: GLLVGSEKVTM (SEQ ID NO: 69) (peptide)
peptide: GLLVGSEKVTM
notes: synthetic peptide; source genes KRT14, KRT16, KRT16P3
B1 yielded a peptide exchange yield of 50 to 75%.
With YTQPFSHYGQAL (synthetic peptide; source gene RNPEP) [YTQPFSHYGQAL (SEQ ID NO: 37)], the peptide exchange yield lay in the range of 50 to 75%.
Under ALLDGGSEAYWRV (synthetic peptide; source gene FAM83A) [ALLDGGSEAYWRV (SEQ ID NO: 8)] stands 50 to 75%.

B2: PAVLQSSGLYSL (SEQ ID NO: 68) (peptide)
peptide: PAVLQSSGLYSL
notes: synthetic peptide; source genes IGHV4-31, IGHG1, IGHG2, IGHG3, IGHG4, IGHM
Turning to B2, the peptide exchange yield lay within 20 to 50%.
For the molecule ALYEYQPLQI (synthetic peptide; source gene MNAT1) [ALYEYQPLQI (SEQ ID NO: 62)], the peptide exchange yield lay within 20 to 50%.
For LVRDTQSGSL (synthetic peptide; source gene SERPINH1) [LVRDTQSGSL (SEQ ID NO: 39)] the value was 20 to 50%; for MLTELEKAL (synthetic peptide; source gene S100A8) [MLTELEKAL (SEQ ID NO: 45)], 20 to 50%; for AVLPHVDQV (synthetic peptide; source gene KIAA0947) [AVLPHVDQV (SEQ ID NO: 81)], 50 to 75%.
Under KVADYIPQL (synthetic peptide; source gene GLS) [KVADYIPQL (SEQ ID NO: 76)] stands 50 to 75%; under YVVGGFLYQRL (synthetic peptide; source gene M6PR) [YVVGGFLYQRL (SEQ ID NO: 65)], 50 to 75%.
Under TQTTHELTI (synthetic peptide; source gene PCBP1) [TQTTHELTI (SEQ ID NO: 61)] stands 50 to 75%; under KITEAIQYV (synthetic peptide; source gene RORA) [KITEAIQYV (SEQ ID NO: 73)], 50 to 75%.
For the molecule ASDPILYRPVAV (synthetic peptide; source gene PKM) [ASDPILYRPVAV (SEQ ID NO: 71)], the peptide exchange yield lay within 50 to 75%.
Under SILRHVAEV (synthetic peptide; source gene EIF2S1) [SILRHVAEV (SEQ ID NO: 92)] stands 20 to 50%.

B3: YQDLLNVKM (SEQ ID NO: 54) (peptide)
peptide: YQDLLNVKM
notes: synthetic peptide; source genes DES, NEFM, NEFH, NEFL, VIM, INA
On to B3, for which the peptide exchange yield fell in the range of 50 to 75%.
As to GLTDVIRDV (synthetic peptide; source gene FBXL18) [GLTDVIRDV (SEQ ID NO: 64)], the peptide exchange yield was ≥ 75%.
For ATGNDRKEAAENSL (synthetic peptide; source gene YWHAE) [ATGNDRKEAAENSL (SEQ ID NO: 44)] the value was 50 to 75%.
Under SLLDTLREV (synthetic peptide; source gene PPP4R1) [SLLDTLREV (SEQ ID NO: 59)] stands 50 to 75%.
On to SLAESLDQA (synthetic peptide; source gene DIS3) [SLAESLDQA (SEQ ID NO: 84)], for which the peptide exchange yield fell in the range of 50 to 75%.

B4: YTAQIGADIAL (SEQ ID NO: 46) (peptide)
peptide: YTAQIGADIAL
notes: synthetic peptide; source genes TPSB2, TPSAB1
In turn, B4 came in with a peptide exchange yield of 50 to 75%.
Under GAIDLLHNV (synthetic peptide; source gene GBP5) [GAIDLLHNV (SEQ ID NO: 55)] stands 20 to 50%; under VLVPYEPPQV (synthetic peptide; source gene TP63) [VLVPYEPPQV (SEQ ID NO: 77)], 20 to 50%; under SLADSLYNL (synthetic peptide; source gene CAMSAP2) [SLADSLYNL (SEQ ID NO: 89)], 20 to 50%.

B5: HLIAEIHTA (SEQ ID NO: 9) (peptide)
peptide: HLIAEIHTA
notes: synthetic peptide; source gene PTHLH; also called PTHL-001
B5 came in with a peptide exchange yield of 50 to 75%.
For VVMEELLKV (synthetic peptide; source gene CYFIP1) [VVMEELLKV (SEQ ID NO: 60)] the value was 20 to 50%; for GLAFSLYQA (synthetic peptide; source gene SERPINH1) [GLAFSLYQA (SEQ ID NO: 40)], 20 to 50%.

B6: FVLDTSESV (SEQ ID NO: 70) (peptide)
peptide: FVLDTSESV
notes: synthetic peptide; source genes COL6A1, COL6A2
The molecule B6 displayed a peptide exchange yield of 50 to 75%.
Take HLLGHLEQA (synthetic peptide; source gene PRDM15) [HLLGHLEQA (SEQ ID NO: 82)]: the peptide exchange yield lay in the range of 50 to 75%.
For TQTAVITRI (synthetic peptide; source gene FAM83D) [TQTAVITRI (SEQ ID NO: 42)] the value was 10 to 20%; for VLINTSVTL (synthetic peptide; source gene ZNF292) [VLINTSVTL (SEQ ID NO: 93)], 50 to 75%; for KLIDDVHRL (synthetic peptide; source gene SRPR) [KLIDDVHRL (SEQ ID NO: 91)], ≥ 75%.
Molecule LLDEKVQSV (synthetic peptide; source gene TSHZ3) [LLDEKVQSV (SEQ ID NO: 66)] returned a peptide exchange yield of 50 to 75%.
For SIFEGLLSGV (synthetic peptide; source gene GJB5) [SIFEGLLSGV (SEQ ID NO: 7)] the value was 20 to 50%; for VLASGFLTV (synthetic peptide; source gene TTPAL) [VLASGFLTV (SEQ ID NO: 47)], ≥ 75%.
Consider ALQEALENA (synthetic peptide; source gene NUP155) [ALQEALENA (SEQ ID NO: 80)], for which the peptide exchange yield is 20 to 50%.
Molecule VVVTGLTLV (synthetic peptide; source gene ARHGDIA) [VVVTGLTLV (SEQ ID NO: 53)] came in with a peptide exchange yield of 20 to 50%.

B7: LAYTLGVKQL (SEQ ID NO: 63) (peptide)
peptide: LAYTLGVKQL
notes: synthetic peptide; source genes EEF1A1P5, EEF1A1, EEF1A2
As for B7, the peptide exchange yield fell in the range of 50 to 75%.
GQDVGRYQV (synthetic peptide; source gene SSR4) [GQDVGRYQV (SEQ ID NO: 79)]: the peptide exchange yield is 20 to 50%.
Under SLDENSDQQV (synthetic peptide; source gene S100A2) [SLDENSDQQV (SEQ ID NO: 10)] stands 50 to 75%.
For FLDNGPKTI (synthetic peptide; source gene EIF4G2) [FLDNGPKTI (SEQ ID NO: 87)] the value was 50 to 75%.
For SMNGGVFAV (synthetic peptide; source gene SLC7A11) [SMNGGVFAV (SEQ ID NO: 67)] the value was 20 to 50%.
Consider LLSGDLIFL (synthetic peptide; source gene GJB5) [LLSGDLIFL (SEQ ID NO: 6)], for which the peptide exchange yield is 50 to 75%.
The molecule ALADGVVSQA (synthetic peptide; source gene GPKOW) [ALADGVVSQA (SEQ ID NO: 83)] returned a peptide exchange yield of 50 to 75%.
As for NIIELVHQV (synthetic peptide; source gene SYK) [NIIELVHQV (SEQ ID NO: 85)], the peptide exchange yield is ≥ 75%.
For NLMASQPQL (synthetic peptide; source gene PKP1) [NLMASQPQL (SEQ ID NO: 5)] the value was 50 to 75%; for FLPPAQVTV (synthetic peptide; source gene NOL6) [FLPPAQVTV (SEQ ID NO: 72)], 20 to 50%.
Under LILESIPVV (synthetic peptide; source gene MAPK6) [LILESIPVV (SEQ ID NO: 58)] stands 20 to 50%.
Under SMHQMLDQTL (synthetic peptide; source gene TPM1) [SMHQMLDQTL (SEQ ID NO: 48)] stands 20 to 50%; under GLMKDIVGA (synthetic peptide; source gene KYNU) [GLMKDIVGA (SEQ ID NO: 49)], 50 to 75%; under KVVGKDYLL (synthetic peptide; source gene CAPZB) [KVVGKDYLL (SEQ ID NO: 43)], 10 to 20%.
As for GLAPNTPGKA (synthetic peptide; source gene PRC1) [GLAPNTPGKA (SEQ ID NO: 57)], the peptide exchange yield was in the range of 50 to 75%.
Under ILASLATSV (synthetic peptide; source gene TUBGCP2) [ILASLATSV (SEQ ID NO: 74)] stands 50 to 75%.
